# Assay results as given in PMC7337384.
# Molecular target: SARS-CoV-2 S-protein receptor-binding domain fused to the Fc domain of human IgG1 (SARS-CoV-2) (UniProt P0DTC2)
# Experiment: SPR
substance,measurement,value
soluble monomeric R. macrotis ACE2 (domain or fragment),Kd,4.6 µM
